In series [1] the target is T1, Serine acetyltransferase (NgSAT) (Neisseria gonorrhoeae, UniProt Q5F6X0).
T1 construct: gene NGO_1423; full-length, N-terminal His-tag, hexamer
As to the kind of experiment: biochemical.

Series [2] concerns the molecule itself. The series can be described thus: SEC; Enrich 650 analytical gel filtration column calibrated with Gel Filtration Standards (Bio-Rad); 50 mM Tris pH 8.0, 100 mM NaCl; oligomeric state of NgSAT. (In gel filtration, larger molecules generally elute earlier.)
Substrate in series [3]: CC(=O)SCCNC(=O)CCNC(=O)[C@H](O)C(C)(C)COP(=O)(O)OP(=O)(O)OC[C@H]1O[C@@H](n2cnc3c(N)ncnc32)[C@H](O)[C@@H]1OP(=O)(O)O
The series can be described thus: Michaelis-Menten kinetics (KM) with purified enzyme. Type of series: biochemical, Neisseria gonorrhoeae.

Substrate in the series “purified protein”: N[C@@H](CO)C(=O)O
As to the kind of experiment: purified protein. Type of series: biochemical, Neisseria gonorrhoeae. To be noted: active site between adjacent monomers; Asp96, Asp161, His162, Arg196, His197.

Series [4] concerns the molecule itself. As to the kind of experiment: SEC-SAXS; Superdex 200 5/150 in line with SAXS, co-flow; 50 mM Tris pH 8.0, 100 mM NaCl, without or with 50 µM L-cysteine; 25°C; mass from Porod volume and P(r) analysis.

As a reminder, the IC50 is the point on the concentration scale where inhibition reaches its midpoint. Higher therefore signals lower potency. `CC(C)(COP(=O)(O)OP(=O)(O)OC[C@H]1O[C@@H](n2cnc3c(N)ncnc32)[C@H](O)[C@@H]1OP(=O)(O)O)[C@@H](O)C(=O)NCCC(=O)NCCS` [coenzyme A]: in series [1], the IC50 is 573 ± 11 µM.

B1: Neisseria gonorrhoeae serine acetyltransferase (enzyme, Neisseria gonorrhoeae MS11, UniProt Q5F6X0 1-272, looked up)
chain: MKKNHLNTTGFDLWHTIREETAAAAAAEPMLASFLHQTVLRHESLGSVLAYHLSSKLGSPIMDVRALFEIYQQALGSDTQISKCVEADLKAIYERDPACDEYSLPLLYFKGFHAIQAHRINHRLYLDGRKTLAYFLQNRMSEVFGVDIHPAARLGYGLMLDHATGFVAGETAVLGNNISILHGVTLGGSGKEGGDRHPKIGDGVMIGANASILGNIRIGSNAKIGAGSVVVSDVPPSITVVGVPAKPVARSLKTPSADMDQNIQFAEIDFMI
notes: 272-residue polypeptide (N-terminal domain 1-144, LbetaH domain 145-272) with an uncleaved 21-residue N-terminal histidine tag; monomer with tag 31.6 kDa; Hexamer (dimer of trimers); also called NgSAT; SAT; source: E. coli BL21 (DE3), purified (HisTrap IMAC, gel filtration); not shown: His-tag, N-terminal, kept
Broadly, the stoichiometry N is a count of units in the complex or per binding partner. Broadly, the Km is the substrate concentration at which the rate is half of its maximum. As a reminder, the kcat is the maximal rate divided by the concentration of active sites. A word on the kcat/Km: it is the turnover number divided by the Michaelis constant. With B1, the “stoichiometry N” value in series [2] was determined as 6. Further, in series [3], the Km was 149 ± 50 µM, the kcat is 1180 ± 111 s⁻¹ and the kcat/Km is 7.89e+06 M⁻¹ s⁻¹. Further, in “purified protein”, the Km was found to be 1210 ± 160 µM, the kcat came out at 1440 ± 41 s⁻¹ and the kcat/Km came out at 1.19e+06 M⁻¹ s⁻¹. The “stoichiometry N” value in series [4] stood at 6.1 monomers per structure.
